According to paper PMC7079959:

Target: T1, MS2 bacteriophage coat protein (bacteriophage MS2), P03612
T1 chain: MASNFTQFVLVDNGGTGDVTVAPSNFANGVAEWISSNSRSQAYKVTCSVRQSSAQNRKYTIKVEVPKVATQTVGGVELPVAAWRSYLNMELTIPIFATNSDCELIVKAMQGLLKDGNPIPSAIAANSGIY
Experiment: SEC
Conditions: remark: other sources report otherwise

B1: MS2 bacteriophage coat protein, P03612 1-130 (natural protein)
chain: T1 chain
stoichiometry N: 2
